In US20200277373A1 (DENALI THERAPEUTICS, published 2020):
Positions count from the first letter of the chain named.

B1: 3D3.A1 (antibody, V domains shown)
VH: EVQLQQSGPELVKPGASVKISCKTSGYTLSEYTMHWVIQSHGKSLEWIGGVIPNSGGTSYNQKFRDKASLTVDKSSSTAYLELRSLTSEDSAVYYCARGDDSYRRGYALDYWGQGTSVTVSS
VL: DIVMSQSPSSLAVSVGEKVTMSCKSSQSLLYSSNQKSYLAWYQQKPGQSPKLLIYWASTRESGVPDRFRGSGSGTDFTLTISSVKAEDLAVYYCQQYFSYPPTFGGGTKLEIK
notes: Mouse hybridoma antibody, Ig2a, k; also called RS8.3D3.A1
B2: 26D2.D1 (antibody, IgG2a, V domains shown)
VH: EVQLQQSGPELVKPGASVKMSCKASGYTFTSYVMHWVKQKPGQGLEWIGYINPYTDGTKYNEKFKGKATLTSDKSSSTAYMDLSSLTSEDSAVYYCARGEVRRYALDYWGQGTSVTVSS
VL: DIQMTQSSSSFSVSLGDRVTITCKASEDIYNRLAWYQQKPGNAPRLLISGATSLETGVPSRFSGSGSGKDYTLSITSLQTEDVATYYCQQYWSTPWTFGGGTKLEIK
notes: Mouse hybridoma antibody, IgG2a, k; also called RS8.26D2.D1
B3: 42E8.H1 (antibody, V domains shown)
VH: DVQLQESGPGLVKPSQSLSLTCTVTGYSITSDYAWNWIRQFPGNKLEWMGYINYSGRTIYNPSLKSRISITRDTSKNHFFLQLISVTTEDTATYYCARWNGNYGFAYWGQGTLVTVSA
VL: DVVMTQNPLSLPVSLGDQASISCRSSQSLVHINGNTYLHWYLQKPGQSPKLLIYKVSNRFSGVPDRFSGSGSGTDFTLKISRVEAEDLGVYFCSQTTHALFTFGSGTKLEIK
notes: Mouse hybridoma antibody, Ig2a, k; also called RS8.42E8.H1
B4: 26E2.A3 (antibody, V domains shown)
VH: QVHLQQSGSELRSPGSSVKLSCKDFDSEVFPISYMSWIRQKPGHGFEWIGDILPSIGGRIYGVKFEDRATLDADTVSNTAYLELNSLTSEDSAIYYCARKDYGSLAYWGQGTLVTVSA
VL: B3 VL with N7T, H39Q, Y41F, D75A, T96S, A99V, L100P, F101Y, S105G
notes: Mouse hybridoma antibody, Ig2a, k; also called RS8.26E2.A3
B5: 49H11.B1 (antibody, IgG3, V domains shown)
VH: B3 VH with K45R, N53S, Y54F, R57S, I59S, H78Q, I84N
VL: B3 VL with N7T, T96S, A99V, L100T
notes: Mouse hybridoma antibody, IgG3, k; also called RS8.49H11.B1
B6: 57D7.A1 (antibody, V domains shown)
VH: QVQLKESGPGLVAPSQSLSITCTVSGFSLSRYSVYWVRQPPGKGLEWLGMIWGGGNTDYNSALKSRLSISKDNSKSQVFLKMNSLQTDDSAMYYCVQYGGMDYWGQGTSVTVSS
VL: DVLMTQTPLSLPVSLGDQASISCRSSQSIVHSNGNTYLEWYLQKPGQSPKLLIYKVSNRFSGVPDRFSGSGSGTDFTLKISRVEAEDLGVYYCFQGSHVPYTFGGGTKLEIK
notes: Mouse hybridoma antibody, Ig2a, k; also called RS8.57D7.A1
B7: 21D4.D1 (antibody, V domains shown)
VH: QVQLQQSGADLLRPGVSVKISCKGSGYTFTDHAMHWVKQSHAESLEWIGVISTYSGDTGYNQKFKGKATMTVDKSSSTAYLELARLTSEDSAIYYCAREGHYDDAMDYWGQGTSVTVSS
VL: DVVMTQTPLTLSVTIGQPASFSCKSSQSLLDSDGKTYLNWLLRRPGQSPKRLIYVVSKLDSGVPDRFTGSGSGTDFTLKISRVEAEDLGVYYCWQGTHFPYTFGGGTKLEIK
notes: Mouse hybridoma antibody, Ig2a, k; also called RS8.21D4.D1
B8: 21D11 (antibody, IgG2a, V domains shown)
VH: QVQLQQSGAELARPGASVKLSCKASGYTFTSYWIQWVKQRPGQGLEWIGTIYPGDGDARYTQKFKGKATLTADKSSSTTYMQLNSLASEDSAVYYCARNGITTAGYYAMDYWGQGTSVTVSS
VL: DIQMTQSPASLSVSVGETVTITCRASENIYSNLAWYQQKQGRSPQLLVYAATNLADGVPSRFSGSGSGTQYSLKINSLQSEDFGYYYCQHFWGTPYTFGGGTKVEIK
notes: Mouse hybridoma antibody, IgG2a, k; also called 21D11.B1; RS8.21D11.B1
B9: 51D4 (antibody, IgG2a, V domains shown)
VH: QVHLQQSGPEVVRPGVSVKISCKGSGYTFTDYGMHWVKQSHAKSLEWIGVISTYNGNTSYNQKYKGKATVTVDKPSSTAYMELVRLTSEDSAIYYCARDFGYVPFDYWGQGTTLTVSS
VL: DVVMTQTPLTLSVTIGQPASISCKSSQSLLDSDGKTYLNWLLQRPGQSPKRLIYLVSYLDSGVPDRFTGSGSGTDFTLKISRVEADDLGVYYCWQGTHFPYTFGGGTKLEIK
notes: Mouse hybridoma antibody, IgG2a, k; also called 51D4.A1; RS8.51D4.A1
B10: 40H3.A4 (antibody, V domains shown)
VH: EVQLQQSGAEVVKPGASVKLSCTASGFNIKDTYMHWVKQRPEQGLEWIGRIDPANGNTKYDPKFQGKATITADTSSNTAYLQLSSLTSEDTAVYYCATLFAYWGQGTLVTVSA
VL: DIVMTQAAFSNPVTLGTSASISCRSSKSLLHSNGITYLYWYLQKPGQSPQLLIYQMSNLASGVPDRFSSSGSGIDFTLRINRVEAEDVGVYYCAQNLELPTFGSGTKLEIK
notes: Mouse hybridoma antibody, isotype N.D; also called RS8.40H3.A4
B11: 7B10.A2 (antibody, V domains shown)
VH: EVQLQQSGPELVKPGASVKMSCKASGYTFTDYNMHWVKQSHGKSLEWIGYINPNNGGTTYNQKFKGKATLTVNKSSSTAYMELRSLTSEDSAVYYCATYNNHYFDSWGQGTTLTVSS
VL: DIQMTQTTSSLSASLGDRVTISCSASQGISNYLNWYQQKPDGTVKLLIYYTSNLHSGVPSRFSGSGSGTDYSLTISNLEPEDIATYYCQQYSNLPYTFGGGTKLEIK

The binders below were run against T1, His-tagged TREM2 ECD (ecto domain residues 19-172 of human TREM2, C-terminal 6X-His tag) (human, UniProt Q9NZC2 19-172) (assay: Biacore T200, antibody captured, antigen injected, 1:1 model).
T1 construct: Made in Expi293F cells; the mouse Ig kappa secretion signal is not part of the mature protein; Biotinylated for the Octet binning; also called TREM2-His; TREM2-His protein
T1 sequence: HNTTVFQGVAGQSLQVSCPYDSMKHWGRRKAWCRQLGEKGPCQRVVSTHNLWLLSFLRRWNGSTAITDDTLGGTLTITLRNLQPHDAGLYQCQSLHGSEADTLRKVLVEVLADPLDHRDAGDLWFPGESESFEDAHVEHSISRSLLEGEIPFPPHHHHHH
Experimental: To measure TfR binding, anti-human-Fab was immobilized on a CM5 chip, and the TREM2/TfR-binding protein was captured. Full-length human TfR or human TfR apical domain at serial dilution (e.g., concentrations of 1-1000 nM) was flowed over the chip (180 second association time) and then allowed to dissociate. Fitting was performed using a 1:1 binding model. To measure TREM2 binding, anti-human-Fc antibody was immobilized on a CM5 chip, and the TREM2/TfR-binding protein was captured. A range of concentrations of recombinant TREM2-His protein were flowed over the chip, and allowed to associate and dissociate. The resulting sensograms were fitted using a 1:1 Langmuir model to estimate kₒₙ and koff (FIG. 10).
Biacore Series S CM5 sensor chips were immobilized with a mixture of two monoclonal mouse anti-Fab antibodies (Human Fab capture kit from GE Healthcare). Serial 3-fold dilutions of each antigen were injected at a flow rate of 30 μL/min. The binding of the antigens to captured antibody was monitored for 30 to 180 seconds and then their dissociation was monitored for 30-300 seconds in HBS-EP+running buffer (GE, # BR100669). Binding response was corrected by subtracting the RU from a blank flow cell. A 1:1 Languir model of simultaneous fitting of kₒₙ and koff was used for kinetics analysis.

Row | Binder | Kd [nM] | koff [s⁻¹] | kon [M⁻¹ s⁻¹]
1 | B1 | 40 | 0.019 | 480000

Each binder was assayed against T2, Mouse TREM2, on cells (mouse, UniProt Q99NH8 19-227) (assay: Table 5, cell binding: Mouse TREM2 HEK).
T2 construct: whole, on cells; also called mouse TREM2 HEK
T2 sequence (looked up): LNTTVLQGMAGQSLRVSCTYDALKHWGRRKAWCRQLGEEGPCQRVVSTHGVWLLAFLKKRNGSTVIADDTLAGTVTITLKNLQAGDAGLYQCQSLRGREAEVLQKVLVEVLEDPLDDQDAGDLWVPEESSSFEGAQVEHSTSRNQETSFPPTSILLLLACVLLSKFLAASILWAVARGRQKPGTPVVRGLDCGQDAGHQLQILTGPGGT

Row | Binder | binding result
2 | B2 | no binding
3 | B3 | no binding
4 | B4 | no binding
5 | B5 | no binding
6 | B6 | no binding
7 | B7 | no binding
8 | B8 | no binding
9 | B9 | no binding
10 | B10 | no binding

Each binder was assayed against T1, His-tagged TREM2 ECD (ecto domain …) (assay: Table 1 Kd; Biacore, TREM2-His analyte (presumed)).
Experimental: Anti-murine Fc antibody (obtained from GE Healthcare) was immobilized on the surface of a CM5 chip (obtained from GE Healthcare) through amine-coupling to reach about 6,000 to 8,000 response units (RU). The surface was activated by injection of a mixture of 1-ethyl-3-(3-dimethylaminopropyl)-carbodiimide (EDC) and N-hydroxysuccinimide (NHS), both obtained from GE Healthcare, for 7 minutes. Anti-murine Fc antibody was diluted in sodium acetate (pH 5.0) at 25 μg/mL and injected for 10 minutes at a flow rate of 5 μL/minute, followed by injection of ethanolamine (obtained from GE Healthcare) for 7 minutes.
Purified anti-TREM2 hybridoma (20 μg/mL) was captured to reach 1000-1500 RU. A range of serially-diluted TREM2-His protein (e.g., 3.4 nM to 300 nM) was injected at a flow rate of 30 μL/minute, using either single-cycle kinetics methods. Sensorgrams were fitted using a 1:1 Langmuir model to estimate kₒₙ and koff.

Row | Binder | Kd [nM]
11 | B2 | 15
12 | B3 | 17
13 | B4 | 12.8
14 | B5 | 63.4
15 | B6 | 2.41
16 | B7 | 1.82
17 | B1 | 7.43
18 | B8 | 0.525
19 | B9 | 2.67
20 | B10 | 0.898

Each binder was assayed against T3, Human TREM2 protein, on cells (human, UniProt Q9NZC2 19-230) (assay: cell-based or functional assay).
T3 sequence: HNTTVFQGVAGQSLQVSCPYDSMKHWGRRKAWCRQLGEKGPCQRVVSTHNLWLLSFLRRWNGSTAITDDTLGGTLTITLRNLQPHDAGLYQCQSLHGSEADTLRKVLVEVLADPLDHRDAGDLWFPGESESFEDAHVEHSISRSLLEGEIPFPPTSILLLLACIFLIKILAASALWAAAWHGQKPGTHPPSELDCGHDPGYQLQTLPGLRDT

Row | Binder | pSyk (nM), EC50 [nM]
21 | B5 | 26.5

Target: T3, Human TREM2 protein, on cells
Experiment: cell-based or functional assay
Remark: another data set of the same source

Row | Binder | pSyk FOB (30 nM Ab) [fold over background]
22 | B2 | 1.73
23 | B3 | 7.17
24 | B4 | 4.67
25 | B5 | 11.6
26 | B6 | 5.02
27 | B11 | 6.89
28 | B1 | 10.3
29 | B8 | 1.68
30 | B9 | 1.12
31 | B10 | 1.23

Each binder was assayed against T3, Human TREM2 protein, on cells (assay: flow cytometry, HEK293 cells overexpressing human TREM2).
Experimental: (§1) After labeling, cells were washed twice with 1×PBS. […] Mixed cell lines were seeded at 300,000 cells per well in a 96-well round-bottom and incubated 20 minutes at room temperature. After incubation, cells were centrifuged and test anti-TREM2 antibodies were added, then incubated for 45 minutes on ice. After incubation, cells were centrifuged and washed with FACS buffer three times.
(§2) The data in Table 2 is presented as fold over binding (FOB).

Row | Binder | FOB (fold over binding) [fold]
32 | B2 | 4.9
33 | B3 | 10.6
34 | B4 | 10.3
35 | B5 | 7
36 | B6 | 11.5
37 | B7 | 12.3
38 | B1 | 11.7
39 | B8 | 8.4
40 | B9 | 7.6
41 | B10 | 1

What follows are binders tested against T2, Mouse TREM2, on cells (assay: flow cytometry, 293F cells overexpressing mouse TREM2).
Experimental: as §1, §2

Row | Binder | FOB (fold over binding) [fold]
42 | B2 | 2.8
43 | B3 | 3.5
44 | B4 | 1.5
45 | B5 | 1.2
46 | B6 | 1.7
47 | B7 | 4
48 | B1 | 8.4
49 | B8 | 1.5
50 | B9 | 1.3
51 | B10 | 0.8
